Experimental data published in paper PMC11844742, “Structural basis of aquaporin-4 autoantibody binding in neuromyelitis optica” (Science Advances, 2025).
Values joined by “and” are separate entries in the source; they are usually repeats but may differ in a detail not shown here. Equal values may be shown once.

Experiments:
Settings in all cases: both partners purified
[1] = biological target: T1, human aquaporin-4 (AQP4) isoform M1, full length, tetramer in detergent (human, UniProt P55087-1); assay: cryo-EM structure; AQP4 in detergent, 18 uM, mixed with ~75 uM Fab186; ~12 uM AQP4 on grids; no symmetry imposed; 2.9 A
T1 construct: aquaporin-4, human, isoform M1, full length (residues 1 to 323); synthesized gene in pPICZ; The purification protocol says the N-terminal tag was cleaved by thrombin; also called AQP4 M1; AQP4 in detergent; source: Pichia pastoris X-33 (strain MG3), purified in DDM (Ni-NTA, thrombin cleavage, cobalt resin, SEC Superdex 200); not shown: 8xHis, N-terminal, cleaved

[2] = biological target: T2, human aquaporin-4 (AQP4) isoform M1, full length, tetramer in MSP1E3D1 lipid nanodiscs (human, UniProt P55087-1); assay: cryo-EM 2D classification; AQP4 M1 in nanodiscs mixed with 30-fold molar excess of Fab186; severe orientation bias, no high-resolution map
T2 construct: aquaporin-4, human, isoform M1, full length (residues 1 to 323); synthesized gene in pPICZ; a thrombin cleavage site lies between the tags and the protein; Homo-tetramer embedded in a nanodisc (soybean polar lipids, MSP1E3D1); for BLI the MSP 1E3D1 was biotinylated; also called AQP4 M1; M1 tetramer; not shown: 8xHis, N-terminal, kept

[3] = biological target: T2, human aquaporin-4 (AQP4) isoform M1, …; assay: cryo-EM structure; AQP4 M1 in nanodiscs (0.3 uM) mixed with ~5-fold molar excess of Fab58; no symmetry imposed; 2.5 A

T2 sequence (P55087 whole entry, the tested form may be a part, canonical isoform): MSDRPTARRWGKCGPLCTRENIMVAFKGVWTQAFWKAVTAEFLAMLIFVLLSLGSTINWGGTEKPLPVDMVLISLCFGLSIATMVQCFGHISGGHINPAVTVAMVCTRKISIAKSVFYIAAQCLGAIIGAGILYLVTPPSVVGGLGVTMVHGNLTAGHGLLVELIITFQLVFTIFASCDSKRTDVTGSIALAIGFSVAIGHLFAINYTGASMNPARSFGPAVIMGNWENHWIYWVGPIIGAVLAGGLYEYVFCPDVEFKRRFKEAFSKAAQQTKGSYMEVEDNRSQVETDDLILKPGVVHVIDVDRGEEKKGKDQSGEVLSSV
T1 sequence (P55087 whole entry, the tested form may be a part, canonical isoform): as above

Row | Binder | stoichiometry N [1] | stoichiometry N [2] [Fab per AQP4 tetramer] | stoichiometry N [3] [Fab per AQP4 tetramer]
1 | Fab186, Fab fragment of patient-derived NMO recombinant antibody rAb186 (Fab, V domains shown, heavy chain (HC) of Fab186 in the deposited model PDB 8V9D; light chain (LC) of Fab186 in the deposited model PDB 8V9D; also called rAB186 Fab; source: rAb186 IgG from Expi293F (MabSelect purified), papain cleavage (Pierce Fab kit), Fc removed with Protein A agarose) VH: QVQLQESGPGLVKPSQTLPLTCTVSGGYISSGSHQWGWIRQPAGKGLEWIGRIYTSGSTNYNPSLKSRVTISVDTSKNQFSLKLSSVTAADTAVYYCARVNYDLLTGRANFFDPWGQGTPVTVSS VL: EIVLTQSPGTLSLSPGERATLSCRASQSVSSRSVAWYQQKPGQAPRLLIYGASNRATGIPDRFSGSGSGTDFTLTISRLEPEDFVVFYCQQYGSSPLTFGGGTKVEIK | ≤ 4 Fab per AQP4 tetramer and 3 Fab per AQP4 tetramer | 4 | 
2 | Fab58, Fab fragment of patient-derived NMO recombinant antibody rAb58 (Fab, V domains shown, heavy chain (HC) of Fab58 in the deposited model PDB 8V91; light chain (LC) of Fab58 in the deposited model PDB 8V91; also called rAB58 Fab; source: rAb58 IgG from Expi293F (MabSelect purified), papain cleavage (Pierce Fab kit), Fc removed with Protein A agarose) VH: QVQLVESGGGLVQPGGSLRLSCAASGFTFRGYAMNWVRQAPGKGLEWVASISGSGSITQYADSAKGRFTITRDNSKSTLYAHVSSLRADDTAVYYCAKGDYVFDYWGQGTLVTVSS VL: DIQMTQSPSALSASVGDTVTITCRASQSIRSWLAWYQQKPGKAPKLLIYKASDLQSGVPSRFSGSGSGTDFTLTISGLQPDDFATYYCQHYNSYPYTFGQGTKVEIR |  |  | 1
